Data reported in PMC4322367.

Columns and labels:
Plk1 [1] = molecular target: Plk1 (UniProt P53350); test: co-IP of FLAG-Ataxin-10 and HA-Plk1; details: reference: wild type; sites S12
Plk1 [2] = molecular target: Plk1 (UniProt P53350); test: GST pull-down of His-Plk1; details: reference: wild type; sites S12

Ataxin-10 (from UniProt Q9UBB4) S12A
other: percent decrease vs wild type (Plk1 [1]): 30%
other: percent decrease vs wild type (Plk1 [2]): 20%
